Our source for the EC50 [nM], 0% HSA and EC50 [nM], 0.1% HSA values is US12679878B2, “CRF2 receptor agonists and their use in therapy” (SANOFI, priority 2020, dated 2026).

Starred links: 1 amine or outer side, 2 acyl side, 3 side chain; linkers in the order of their positions; H or OH if unused. Non-standard residues stand in square brackets, D forms with d. Groups on a side chain read outwards from the residue. *: point of attachment. C18 diacid = O=C(O)CCCCCCCCCCCCCCCCC(=O)*; γGlu = O=C(O)[C@H](CCC(=O)[*:2])N[*:1]; AEEA = NCCOCCOCC(=O)O; Aib = CC(C)(N)C(=O)O

The target in the assay is human corticotropin-releasing factor 2α (CRF2 α receptor) (human), Q13324. Nature of the assay: cell-based or functional assay.
Chain of human corticotropin-releasing factor 2α (CRF2 α receptor) (human), Q13324 (Q13324 20-411): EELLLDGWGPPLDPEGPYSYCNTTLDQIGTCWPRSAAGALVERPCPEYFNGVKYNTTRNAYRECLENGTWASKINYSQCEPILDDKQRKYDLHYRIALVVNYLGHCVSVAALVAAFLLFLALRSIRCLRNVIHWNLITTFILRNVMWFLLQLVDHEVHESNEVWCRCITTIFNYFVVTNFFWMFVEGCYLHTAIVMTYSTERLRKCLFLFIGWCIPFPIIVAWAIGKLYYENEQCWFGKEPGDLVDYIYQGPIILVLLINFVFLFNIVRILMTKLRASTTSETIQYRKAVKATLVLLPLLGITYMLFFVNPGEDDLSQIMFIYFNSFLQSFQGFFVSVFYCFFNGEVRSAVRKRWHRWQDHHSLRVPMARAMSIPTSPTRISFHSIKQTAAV

B1: SEQ ID NO: 157 (peptide)
peptide: Ac-IVLSLD[dV]PIKLK([AEEA-AEEA-γGlu-C18 diacid])QILLEQARQK[Aib]QREQAEKNKQILEQV-NH2
SMILES: CC[C@H](C)[C@H](NC(C)=O)C(=O)N[C@H](C(=O)N[C@@H](CC(C)C)C(=O)N[C@@H](CO)C(=O)N[C@@H](CC(C)C)C(=O)N[C@@H](CC(=O)O)C(=O)N[C@@H](C(=O)N1CCC[C@H]1C(=O)N[C@H](C(=O)N[C@@H](CCCCN)C(=O)N[C@@H](CC(C)C)C(=O)N[C@@H](CCCCNC(=O)COCCOCCNC(=O)COCCOCCNC(=O)CC[C@H](NC(=O)CCCCCCCCCCCCCCCCC(=O)O)C(=O)O)C(=O)N[C@@H](CCC(N)=O)C(=O)N[C@H](C(=O)N[C@@H](CC(C)C)C(=O)N[C@@H](CC(C)C)C(=O)N[C@@H](CCC(=O)O)C(=O)N[C@@H](CCC(N)=O)C(=O)N[C@@H](C)C(=O)N[C@@H](CCCNC(=N)N)C(=O)N[C@@H](CCC(N)=O)C(=O)N[C@@H](CCCCN)C(=O)NC(C)(C)C(=O)N[C@@H](CCC(N)=O)C(=O)N[C@@H](CCCNC(=N)N)C(=O)N[C@@H](CCC(=O)O)C(=O)N[C@@H](CCC(N)=O)C(=O)N[C@@H](C)C(=O)N[C@@H](CCC(=O)O)C(=O)N[C@@H](CCCCN)C(=O)N[C@@H](CC(N)=O)C(=O)N[C@@H](CCCCN)C(=O)N[C@@H](CCC(N)=O)C(=O)N[C@H](C(=O)N[C@@H](CC(C)C)C(=O)N[C@@H](CCC(=O)O)C(=O)N[C@@H](CCC(N)=O)C(=O)N[C@H](C(N)=O)C(C)C)[C@@H](C)CC)[C@@H](C)CC)[C@@H](C)CC)C(C)C)C(C)C
For B1, the EC50 [nM], 0% HSA was found to be 0.12 nM and the EC50 [nM], 0.1% HSA is 2.53 nM.

B2: SEQ ID NO: 160 (peptide)
peptide: Ac-IVLSLD[dV]PIKLK([AEEA-AEEA-γGlu-C18 diacid])QILLEQERQE[Aib]EREQAETNKQILEQV-NH2
SMILES: CC[C@H](C)[C@H](NC(C)=O)C(=O)N[C@H](C(=O)N[C@@H](CC(C)C)C(=O)N[C@@H](CO)C(=O)N[C@@H](CC(C)C)C(=O)N[C@@H](CC(=O)O)C(=O)N[C@@H](C(=O)N1CCC[C@H]1C(=O)N[C@H](C(=O)N[C@@H](CCCCN)C(=O)N[C@@H](CC(C)C)C(=O)N[C@@H](CCCCNC(=O)COCCOCCNC(=O)COCCOCCNC(=O)CC[C@H](NC(=O)CCCCCCCCCCCCCCCCC(=O)O)C(=O)O)C(=O)N[C@@H](CCC(N)=O)C(=O)N[C@H](C(=O)N[C@@H](CC(C)C)C(=O)N[C@@H](CC(C)C)C(=O)N[C@@H](CCC(=O)O)C(=O)N[C@@H](CCC(N)=O)C(=O)N[C@@H](CCC(=O)O)C(=O)N[C@@H](CCCNC(=N)N)C(=O)N[C@@H](CCC(N)=O)C(=O)N[C@@H](CCC(=O)O)C(=O)NC(C)(C)C(=O)N[C@@H](CCC(=O)O)C(=O)N[C@@H](CCCNC(=N)N)C(=O)N[C@@H](CCC(=O)O)C(=O)N[C@@H](CCC(N)=O)C(=O)N[C@@H](C)C(=O)N[C@@H](CCC(=O)O)C(=O)N[C@H](C(=O)N[C@@H](CC(N)=O)C(=O)N[C@@H](CCCCN)C(=O)N[C@@H](CCC(N)=O)C(=O)N[C@H](C(=O)N[C@@H](CC(C)C)C(=O)N[C@@H](CCC(=O)O)C(=O)N[C@@H](CCC(N)=O)C(=O)N[C@H](C(N)=O)C(C)C)[C@@H](C)CC)[C@@H](C)O)[C@@H](C)CC)[C@@H](C)CC)C(C)C)C(C)C
In the case of B2, the EC50 [nM], 0% HSA was determined as 8.56 nM and the EC50 [nM], 0.1% HSA stood at 28.9 nM.

B3: SEQ ID NO: 158 (peptide)
peptide: Ac-IVLSLD[dV]PIKLK([AEEA-AEEA-γGlu-C18 diacid])QILLEQERQK[Aib]QREQAEKNKQILEQV-NH2
SMILES: CC[C@H](C)[C@H](NC(C)=O)C(=O)N[C@H](C(=O)N[C@@H](CC(C)C)C(=O)N[C@@H](CO)C(=O)N[C@@H](CC(C)C)C(=O)N[C@@H](CC(=O)O)C(=O)N[C@@H](C(=O)N1CCC[C@H]1C(=O)N[C@H](C(=O)N[C@@H](CCCCN)C(=O)N[C@@H](CC(C)C)C(=O)N[C@@H](CCCCNC(=O)COCCOCCNC(=O)COCCOCCNC(=O)CC[C@H](NC(=O)CCCCCCCCCCCCCCCCC(=O)O)C(=O)O)C(=O)N[C@@H](CCC(N)=O)C(=O)N[C@H](C(=O)N[C@@H](CC(C)C)C(=O)N[C@@H](CC(C)C)C(=O)N[C@@H](CCC(=O)O)C(=O)N[C@@H](CCC(N)=O)C(=O)N[C@@H](CCC(=O)O)C(=O)N[C@@H](CCCNC(=N)N)C(=O)N[C@@H](CCC(N)=O)C(=O)N[C@@H](CCCCN)C(=O)NC(C)(C)C(=O)N[C@@H](CCC(N)=O)C(=O)N[C@@H](CCCNC(=N)N)C(=O)N[C@@H](CCC(=O)O)C(=O)N[C@@H](CCC(N)=O)C(=O)N[C@@H](C)C(=O)N[C@@H](CCC(=O)O)C(=O)N[C@@H](CCCCN)C(=O)N[C@@H](CC(N)=O)C(=O)N[C@@H](CCCCN)C(=O)N[C@@H](CCC(N)=O)C(=O)N[C@H](C(=O)N[C@@H](CC(C)C)C(=O)N[C@@H](CCC(=O)O)C(=O)N[C@@H](CCC(N)=O)C(=O)N[C@H](C(N)=O)C(C)C)[C@@H](C)CC)[C@@H](C)CC)[C@@H](C)CC)C(C)C)C(C)C
B3 gave an EC50 [nM], 0% HSA of 0.42 nM and an EC50 [nM], 0.1% HSA of 5.63 nM.

B4: SEQ ID NO: 159 (peptide)
peptide: Ac-IVLSLD[dV]PIKLK([AEEA-AEEA-γGlu-C18 diacid])QILLEQERQE[Aib]QREQAEKNKQILEQV-NH2
SMILES: CC[C@H](C)[C@H](NC(C)=O)C(=O)N[C@H](C(=O)N[C@@H](CC(C)C)C(=O)N[C@@H](CO)C(=O)N[C@@H](CC(C)C)C(=O)N[C@@H](CC(=O)O)C(=O)N[C@@H](C(=O)N1CCC[C@H]1C(=O)N[C@H](C(=O)N[C@@H](CCCCN)C(=O)N[C@@H](CC(C)C)C(=O)N[C@@H](CCCCNC(=O)COCCOCCNC(=O)COCCOCCNC(=O)CC[C@H](NC(=O)CCCCCCCCCCCCCCCCC(=O)O)C(=O)O)C(=O)N[C@@H](CCC(N)=O)C(=O)N[C@H](C(=O)N[C@@H](CC(C)C)C(=O)N[C@@H](CC(C)C)C(=O)N[C@@H](CCC(=O)O)C(=O)N[C@@H](CCC(N)=O)C(=O)N[C@@H](CCC(=O)O)C(=O)N[C@@H](CCCNC(=N)N)C(=O)N[C@@H](CCC(N)=O)C(=O)N[C@@H](CCC(=O)O)C(=O)NC(C)(C)C(=O)N[C@@H](CCC(N)=O)C(=O)N[C@@H](CCCNC(=N)N)C(=O)N[C@@H](CCC(=O)O)C(=O)N[C@@H](CCC(N)=O)C(=O)N[C@@H](C)C(=O)N[C@@H](CCC(=O)O)C(=O)N[C@@H](CCCCN)C(=O)N[C@@H](CC(N)=O)C(=O)N[C@@H](CCCCN)C(=O)N[C@@H](CCC(N)=O)C(=O)N[C@H](C(=O)N[C@@H](CC(C)C)C(=O)N[C@@H](CCC(=O)O)C(=O)N[C@@H](CCC(N)=O)C(=O)N[C@H](C(N)=O)C(C)C)[C@@H](C)CC)[C@@H](C)CC)[C@@H](C)CC)C(C)C)C(C)C
The molecule B4 returned an EC50 [nM], 0% HSA of 1.27 nM and an EC50 [nM], 0.1% HSA of 27.4 nM.
